In patent publication US8841085 (KOREA INSTITUTE OF SCIENCE AND TECHNOLOGY, dated 2014):
Like-named read-outs stand apart in the source and are kept apart here. Each block holds one binder with its values, some of them ahead of it.

How the values were obtained:
Experiment in all cases: cell-based or functional assay
MMP-2 [1] = molecular target: MMP-2
MMP-3 [2] = molecular target: MMP-3
MMP-7 [3] = molecular target: T1, MMP-7
T1 sequence (P09237 95-267, species assumed, looked up): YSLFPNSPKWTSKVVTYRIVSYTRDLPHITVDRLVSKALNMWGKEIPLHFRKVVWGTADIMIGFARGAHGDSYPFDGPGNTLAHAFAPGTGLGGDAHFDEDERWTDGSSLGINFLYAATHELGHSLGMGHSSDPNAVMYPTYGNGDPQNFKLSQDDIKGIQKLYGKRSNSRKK

MMP-9 [4] = molecular target: MMP-9
MMP-13 [5] = molecular target: MMP-13
MMP-2 [6] = molecular target: MMP-2; remark: listed apart in the source
MMP-3 [7] = molecular target: MMP-3; remark: listed apart in the source
MMP-7 [8] = molecular target: T1, MMP-7; remark: listed apart in the source
MMP-9 [9] = molecular target: MMP-9; remark: listed apart in the source
MMP-13 [10] = molecular target: MMP-13; remark: listed apart in the source
MMP-2 [11] = molecular target: MMP-2; remark: listed apart in the source
MMP-3 [12] = molecular target: MMP-3; remark: listed apart in the source
MMP-7 [13] = molecular target: T1, MMP-7; remark: listed apart in the source
MMP-9 [14] = molecular target: MMP-9; remark: listed apart in the source
MMP-13 [15] = molecular target: MMP-13; remark: listed apart in the source
MMP-2 [16] = molecular target: MMP-2; remark: listed apart in the source
MMP-3 [17] = molecular target: MMP-3; remark: listed apart in the source
MMP-7 [18] = molecular target: T1, MMP-7; remark: listed apart in the source
MMP-9 [19] = molecular target: MMP-9; remark: listed apart in the source
MMP-13 [20] = molecular target: MMP-13; remark: listed apart in the source

fluorescent intensity (FI) recovered after 60 minutes, fold (MMP-2 [1]): 3.7 times | fluorescent intensity (FI) recovered after 60 minutes, fold (MMP-3 [2]): 2.4 times | fluorescent intensity (FI) recovered after 60 minutes, fold (MMP-7 [3]): 0.8 times | fluorescent intensity (FI) recovered after 60 minutes, fold (MMP-9 [4]): 1.3 times | fluorescent intensity (FI) recovered after 60 minutes, fold (MMP-13 [5]): 4.3 times | fluorescent intensity (FI) at 0 min (MMP-2 [6]): 77.4 | fluorescent intensity (FI) at 10 min (MMP-2 [6]): 91 | fluorescent intensity (FI) at 20 min (MMP-2 [6]): 125 | fluorescent intensity (FI) at 30 min (MMP-2 [6]): 151 | fluorescent intensity (FI) at 40 min (MMP-2 [6]): 189 | fluorescent intensity (FI) at 50 min (MMP-2 [6]): 238 | fluorescent intensity (FI) at 60 min (MMP-2 [6]): 287 | fluorescent intensity (FI) at 0 min (MMP-3 [7]): 102 | fluorescent intensity (FI) at 10 min (MMP-3 [7]): 128 | fluorescent intensity (FI) at 20 min (MMP-3 [7]): 143 | fluorescent intensity (FI) at 30 min (MMP-3 [7]): 174 | fluorescent intensity (FI) at 40 min (MMP-3 [7]): 200 | fluorescent intensity (FI) at 50 min (MMP-3 [7]): 217 | fluorescent intensity (FI) at 60 min (MMP-3 [7]): 249 | fluorescent intensity (FI) at 0 min (MMP-7 [8]): 104 | fluorescent intensity (FI) at 10 min (MMP-7 [8]): 90.1 | fluorescent intensity (FI) at 20 min (MMP-7 [8]): 87.6 | fluorescent intensity (FI) at 30 min (MMP-7 [8]): 87 | fluorescent intensity (FI) at 40 min (MMP-7 [8]): 91.5 | fluorescent intensity (FI) at 50 min (MMP-7 [8]): 94.9 | fluorescent intensity (FI) at 60 min (MMP-7 [8]): 86.3 | fluorescent intensity (FI) at 0 min (MMP-9 [9]): 101 | fluorescent intensity (FI) at 10 min (MMP-9 [9]): 106 | fluorescent intensity (FI) at 20 min (MMP-9 [9]): 109 | fluorescent intensity (FI) at 30 min (MMP-9 [9]): 114 | fluorescent intensity (FI) at 40 min (MMP-9 [9]): 128 | fluorescent intensity (FI) at 50 min (MMP-9 [9]): 130 | fluorescent intensity (FI) at 60 min (MMP-9 [9]): 133 | fluorescent intensity (FI) at 0 min (MMP-13 [10]): 101 | fluorescent intensity (FI) at 10 min (MMP-13 [10]): 131 | fluorescent intensity (FI) at 20 min (MMP-13 [10]): 166 | fluorescent intensity (FI) at 30 min (MMP-13 [10]): 234 | fluorescent intensity (FI) at 40 min (MMP-13 [10]): 281 | fluorescent intensity (FI) at 50 min (MMP-13 [10]): 355 | fluorescent intensity (FI) at 60 min (MMP-13 [10]): 456
B1: PN3 (P3: Cy5.5-Gly-Pro-Leu-Gly-Met-Arg-Gly-Leu-Gly-Lys(BHQ3)-Gly-Gly-COOH conjugated to glycol chitosan-bile acid nanoparticle) (peptide)
peptide: {Cy5.5}-GPLGMRGLGK(BHQ3)GG-{glycol chitosan‑cholanic acid nanoparticle}
modifications: not fully specified; printed as Cy5.5-Gly-Pro-Leu-Gly-Met-Arg-Gly-Leu-Gly-Lys(BHQ3)-Gly-Gly-COOH

fluorescent intensity (FI) recovered after 60 minutes, fold (MMP-2 [1]): 1.8 times | fluorescent intensity (FI) recovered after 60 minutes, fold (MMP-3 [2]): 3.6 times | fluorescent intensity (FI) recovered after 60 minutes, fold (MMP-7 [3]): 3.9 times | fluorescent intensity (FI) recovered after 60 minutes, fold (MMP-9 [4]): 1.3 times | fluorescent intensity (FI) recovered after 60 minutes, fold (MMP-13 [5]): 4.8 times | fluorescent intensity (FI) at 0 min (MMP-2 [11]): 271 | fluorescent intensity (FI) at 10 min (MMP-2 [11]): 245 | fluorescent intensity (FI) at 20 min (MMP-2 [11]): 350 | fluorescent intensity (FI) at 30 min (MMP-2 [11]): 280 | fluorescent intensity (FI) at 40 min (MMP-2 [11]): 335 | fluorescent intensity (FI) at 50 min (MMP-2 [11]): 426 | fluorescent intensity (FI) at 60 min (MMP-2 [11]): 494 | fluorescent intensity (FI) at 0 min (MMP-3 [12]): 336 | fluorescent intensity (FI) at 10 min (MMP-3 [12]): 226 | fluorescent intensity (FI) at 20 min (MMP-3 [12]): 408 | fluorescent intensity (FI) at 30 min (MMP-3 [12]): 843 | fluorescent intensity (FI) at 40 min (MMP-3 [12]): 946 | fluorescent intensity (FI) at 50 min (MMP-3 [12]): 1070 | fluorescent intensity (FI) at 60 min (MMP-3 [12]): 1230 | fluorescent intensity (FI) at 0 min (MMP-7 [13]): 328 | fluorescent intensity (FI) at 10 min (MMP-7 [13]): 653 | fluorescent intensity (FI) at 20 min (MMP-7 [13]): 993 | fluorescent intensity (FI) at 30 min (MMP-7 [13]): 1160 | fluorescent intensity (FI) at 40 min (MMP-7 [13]): 1250 | fluorescent intensity (FI) at 50 min (MMP-7 [13]): 1310 | fluorescent intensity (FI) at 60 min (MMP-7 [13]): 1280 | fluorescent intensity (FI) at 0 min (MMP-9 [14]): 182 | fluorescent intensity (FI) at 10 min (MMP-9 [14]): 186 | fluorescent intensity (FI) at 20 min (MMP-9 [14]): 186 | fluorescent intensity (FI) at 30 min (MMP-9 [14]): 187 | fluorescent intensity (FI) at 40 min (MMP-9 [14]): 239 | fluorescent intensity (FI) at 50 min (MMP-9 [14]): 233 | fluorescent intensity (FI) at 60 min (MMP-9 [14]): 248 | fluorescent intensity (FI) at 0 min (MMP-13 [15]): 287 | fluorescent intensity (FI) at 10 min (MMP-13 [15]): 724 | fluorescent intensity (FI) at 20 min (MMP-13 [15]): 1060 | fluorescent intensity (FI) at 30 min (MMP-13 [15]): 1230 | fluorescent intensity (FI) at 40 min (MMP-13 [15]): 1350 | fluorescent intensity (FI) at 50 min (MMP-13 [15]): 1360 | fluorescent intensity (FI) at 60 min (MMP-13 [15]): 1370
B2: PN2 (P2: Cy5.5-Gly-Val-Pro-Leu-Ser-Leu-Thr-Met-Gly-Lys(BHQ3)-Gly-Gly-COOH conjugated to glycol chitosan-bile acid nanoparticle) (peptide)
peptide: {Cy5.5}-GVPLSLTMGK(BHQ3)GG-{glycol chitosan‑cholanic acid nanoparticle}
modifications: not fully specified; printed as Cy5.5-Gly-Val-Pro-Leu-Ser-Leu-Thr-Met-Gly-Lys(BHQ3)-Gly-Gly-COOH

fluorescent intensity (FI) recovered after 60 minutes, fold (MMP-2 [1]): 9.7 times | fluorescent intensity (FI) recovered after 60 minutes, fold (MMP-3 [2]): 2 times | fluorescent intensity (FI) recovered after 60 minutes, fold (MMP-7 [3]): 1 times | fluorescent intensity (FI) recovered after 60 minutes, fold (MMP-9 [4]): 9.2 times | fluorescent intensity (FI) recovered after 60 minutes, fold (MMP-13 [5]): 12.3 times | fluorescent intensity (FI) at 0 min (MMP-2 [16]): 379 | fluorescent intensity (FI) at 10 min (MMP-2 [16]): 952 | fluorescent intensity (FI) at 20 min (MMP-2 [16]): 1720 | fluorescent intensity (FI) at 30 min (MMP-2 [16]): 2390 | fluorescent intensity (FI) at 40 min (MMP-2 [16]): 2920 | fluorescent intensity (FI) at 50 min (MMP-2 [16]): 3210 | fluorescent intensity (FI) at 60 min (MMP-2 [16]): 3660 | fluorescent intensity (FI) at 0 min (MMP-3 [17]): 307 | fluorescent intensity (FI) at 10 min (MMP-3 [17]): 285 | fluorescent intensity (FI) at 20 min (MMP-3 [17]): 363 | fluorescent intensity (FI) at 30 min (MMP-3 [17]): 421 | fluorescent intensity (FI) at 40 min (MMP-3 [17]): 506 | fluorescent intensity (FI) at 50 min (MMP-3 [17]): 537 | fluorescent intensity (FI) at 60 min (MMP-3 [17]): 630 | fluorescent intensity (FI) at 0 min (MMP-7 [18]): 278 | fluorescent intensity (FI) at 10 min (MMP-7 [18]): 288 | fluorescent intensity (FI) at 20 min (MMP-7 [18]): 287 | fluorescent intensity (FI) at 30 min (MMP-7 [18]): 290 | fluorescent intensity (FI) at 40 min (MMP-7 [18]): 294 | fluorescent intensity (FI) at 50 min (MMP-7 [18]): 300 | fluorescent intensity (FI) at 60 min (MMP-7 [18]): 302 | fluorescent intensity (FI) at 0 min (MMP-9 [19]): 350 | fluorescent intensity (FI) at 10 min (MMP-9 [19]): 680 | fluorescent intensity (FI) at 20 min (MMP-9 [19]): 1350 | fluorescent intensity (FI) at 30 min (MMP-9 [19]): 2010 | fluorescent intensity (FI) at 40 min (MMP-9 [19]): 2250 | fluorescent intensity (FI) at 50 min (MMP-9 [19]): 2850 | fluorescent intensity (FI) at 60 min (MMP-9 [19]): 3220 | fluorescent intensity (FI) at 0 min (MMP-13 [20]): 665 | fluorescent intensity (FI) at 10 min (MMP-13 [20]): 1930 | fluorescent intensity (FI) at 20 min (MMP-13 [20]): 3930 | fluorescent intensity (FI) at 30 min (MMP-13 [20]): 5290 | fluorescent intensity (FI) at 40 min (MMP-13 [20]): 6510 | fluorescent intensity (FI) at 50 min (MMP-13 [20]): 7610 | fluorescent intensity (FI) at 60 min (MMP-13 [20]): 8180
B3: PN1 (P1: Cy5.5-Gly-Pro-Leu-Gly-Val-Arg-Gly-Lys(BHQ3)-Gly-Gly-COOH conjugated to glycol chitosan-bile acid nanoparticle) (peptide)
peptide: {Cy5.5}-GPLGVRGK(BHQ3)GG-{glycol chitosan‑cholanic acid nanoparticle}
modifications: not fully specified; printed as Cy5.5-Gly-Pro-Leu-Gly-Val-Arg-Gly-Lys(BHQ3)-Gly-Gly-COOH
